Patent publication US20090291083A1, “BARB4 TARGET, ANTIBODY DESIGNATED BARB4, BARB4 RELATED ANTIBODIES, AND METHODS OF MAKING AND USING SAME” (PATRYS LIMITED, priority 2008, published 2009)

What was measured:
[1] = tested on: BxPC-3; assay: MTT cell proliferation assay (Table 2); assay type: cell-based, human; settings: for IC50, BA4 (24 hr): MTT 24 hr post-treatment; for IC50, BA4 (48 hr): MTT 48 hr post-treatment
Procedure: (§1) BARB4 was also evaluated for inhibition of proliferation of other cancer cell lines, including BxPC-3, COLO 205, H460, MDA-MB-231 and MIAPaCa-2 cells, as well as HT-29, HCT-116, BxPC-3, PANC-1, A549, PC-3 and HCT116 cells. In brief, various human cancer cell lines obtained from the American Type Culture Collection (ATCC) were established using standard in vitro culture methods and ATCC recommended media in 175 cm2 BD tissue culture treated flasks. In particular, MDAMB-231 cultures were incubated in a humidified 37° C., 100% air incubator, and BxPC-3, COLO 205, H460 and MIAPaCa-2 cultures were incubated in a humidified 37° C., 5% CO2, 95% air incubator. Cultures were sub-cultivated regularly to maintain log phase growth. All cell lines were brought up from cryopreservation using the original recommended ATCC media type and supplements. Cell line specific seeding densities were based on historical data from MIR Preclinical Services for growth over a 72 hr period.
(§2) On the day of IC50 plate seeding, the adherent cells were removed from the flasks for each cell line using trypsin EDTA, 1× (Cell Gro #25-053-CI). Trypsin was deactivated using complete media and the cells were pooled (each line done separately). The pooled cells in complete media were counted using trypan blue exclusion with a Neubauer Bright-Line® hemacytometer. The percent viability for each cell line was as follows:
(§3) Based on live cell counts, each suspension was then diluted in complete media (containing required supplements) to achieve the desired seeding density for each cell line. Once seeded, the cells were allowed to attach to the plates overnight and then treated with BA4 or cisplatin 24 hr post-seeding.
(§4) BARB4 was serially diluted 1:2 (2× final conc. in dilution reservoir=1600 μg/ml) in media to achieve a final 800 μg/ml starting concentration in the top dosage wells of the treatment plate by diluting 1:2 when transferred from the reservoir to the treatment plate. Antibody was added to columns 1 through 10 of the treatment plate. Column 11 was for cells+media only control and column 12 was for a media only blank. Cisplatin (positive control) was manufactured by Sigma (# M4394, lot 087K1349) and supplied as a fine, dark yellow powder, in an amber vial, stored at room temperature and housed in a covered box to prevent exposure to light. Cisplatin was previously dissolved in 0.9% saline to make a clear, colorless 4 mM stock solution, aliquoted and frozen at −20° C. Frozen aliquots were quickly thawed by holding the tubes in hand, placed on wet ice and diluted (2× conc. dilution reservoir) to achieve a final 1 mM starting concentration in the top dosage wells of the treatment plate (diluted 1:2 when transferred from the dilution reservoir to the treatment plate). Serial dilutions of 1:4 were made from wells 1 through 10 of the dilution reservoir prior to transfer to the treatment plate.
(§5) The BARB4 stock solution (10.5 mg/ml) was prepared by dilution in complete media according to the table below for a final starting treatment concentration of 800 μg/ml. The 4 mM stock solution of cisplatin in 0.9% saline was diluted in complete media for a final starting treatment concentration of 1 mM.
(§6) Cells were exposed to BARB4 or cisplatin for a 24 hr period. The plates were incubated overnight at 37° C. At 24 hr and 48 hr post-treatment, the MTT assay was performed as described below.
(§7) The anti-proliferative activity of BARB4 and cisplatin was evaluated using the MTT cell proliferation assay (ATCC catalog #30-1010K). The assay is based on the reduction of yellow tetrazolium MTT (3-(4,5-dimethylthiazolyl-2)-2,5-diphenyltetrazolium bromide) by metabolically active cells forming purple formazan crystals. […]

[2] = tested on: MIAPaCa-2; assay: MTT cell proliferation assay (Table 2); assay type: cell-based, human; settings: EC50
Procedure: as §1, §2, §3, §4, §5, §6, §7

[3] = tested on: MDA-MB-231; assay: MTT cell proliferation assay (Table 2); assay type: cell-based, human; settings: EC50
Procedure: as §1, §2, §3, §4, §5, §6, §7

[4] = tested on: H460; assay: MTT cell proliferation assay (Table 2); assay type: cell-based, human; settings: EC50
Procedure: as §1, §2, §3, §4, §5, §6, §7

[5] = tested on: COLO 205; assay: MTT cell proliferation assay (Table 2); assay type: cell-based, human; settings: EC50
Procedure: as §1, §2, §3, §4, §5, §6, §7

[6] = tested on: human pancreas carcinoma cells (BXPC-3); assay: Glycosidase assay on cytospins, immunohistochemical staining; assay type: binding; settings: BXPC-3 cytospins, biotinylated BARB4 100 μg/ml
Procedure: To determine whether O- or N-linked sugar residues are potentially involved in BARB4 binding to tumor cells, cytospin preparations of BXPC-3 cancer cells were incubated with N- or O-glycosidase. In brief, 4×10^5 human pancreas carcinoma cells (BXPC-3) were resuspended in 1 ml Dulbecco's phosphate buffered saline pH 7.2 (Sigma, Taufkirchen, Germany) and incubated with 10 U/ml N-glycosidase or 40 mU/ml O-glycosidase (both Roche Applied Science, Mannheim, Germany) for 2 hours at 37° C. Untreated cells in Dulbecco's phosphate buffered saline served as control. Cytospins were prepared and immunohistochemical staining with biotinylated BARB4 antibody (100 μg/ml) was performed.
After treatment of the cells, binding of BARB4 was evaluated by immunohistochemical staining (FIG. 5). […] BARB4 could therefore bind to an eptiope that includes or consists of a carbohydrate moiety that is removed or modified by O-glycosidase treatment.

[7] = BxPC-3, b280: really EC50 of total observed effect

B1: BARB4: human IgG antibody produced by hybridoma DSMZ Deposit No. DSM ACC2876; heavy chain SEQ ID NOs:1, 3, 5, 7, light chain SEQ ID NO:9 (antibody, V domains shown)
VH: QVQLVESGGGVVQPGRSLRLSCAASGFRFTTHGMHWVRQAPGKGLEWVAVISYNGRNKYYADYVNGRFTISRDDSRDTVFLQMNSLRPEDTAMYYCAKVRGDGYGDYGYFDYWGHGTLVSVSS
VL: QSALTQPRSVSGSPGQSVTISCTGTYNYVSWYQQHPGKAPKLMIFDVSRRSSGVPDRFSGSKSGNTASLTISGLQAEDEADYYCCSYGGTYLYVFGTGTTVTVLGQ
IC50, BA4 (24 hr) [1, 7]: >800 mg/L
IC50, BA4 (48 hr) [1, 7]: >800 mg/L
IC50, BA4 (24 hr) ([1]; BxPC-3 repeat, EC50): >800 mg/L
IC50, BA4 (48 hr) ([1]; BxPC-3 repeat, EC50): >800 mg/L
IC50, BA4 (24 hr) ([2]; MTT 24 hr post-treatment): 34.9 mg/L
IC50, BA4 (48 hr) ([2]; MTT 48 hr post-treatment): 21.1 mg/L
IC50, BA4 (24 hr) ([3]; MTT 24 hr post-treatment): 154 mg/L
IC50, BA4 (48 hr) ([3]; MTT 48 hr post-treatment): 193 mg/L
IC50, BA4 (24 hr) ([4]; MTT 24 hr post-treatment): 413 mg/L
IC50, BA4 (48 hr) ([4]; MTT 48 hr post-treatment): >800 mg/L
IC50, BA4 (24 hr) ([5]; MTT 24 hr post-treatment): 66.8 mg/L
IC50, BA4 (48 hr) ([5]; MTT 48 hr post-treatment): 2.78 mg/L
surface binding on cells treated with N-glycosidase ([6]; 10 U/ml N-glycosidase 2 hours 37° C.): clear reduction of surface binding
binding on cells treated with O-glycosidase ([6]; 40 mU/ml O-glycosidase 2 hours 37° C.): no effect
